Results reported in paper PMC12445222.

Legend:
[1] = substrate: ClCCCl; assay: ITC initial rates, steady-state fit with substrate inhibition; format: biochemical, Xanthobacter autotrophicus; conditions: 100 mM glycine buffer, pH 8.6, 15 °C
[2] = substrate: ClCCCl; assay: ITC initial rates, steady-state fit; format: biochemical, Xanthobacter autotrophicus; conditions: 100 mM glycine buffer, pH 8.6, 15 °C

| Protein | Km [1] [µM] | kcat [1] [s⁻¹] | Km [2] [µM] | kcat [2] [s⁻¹] |
| --- | --- | --- | --- | --- |
| haloalkane dehalogenase (DhlA) (Xanthobacter autotrophicus) (protein) MINAIRTPDQRFSNLDQYPFSPNYLDDLPGYPGLRAHYLDEGNSDAEDVFLCLHGEPTWSYLYRKMIPVFAESGARVIAPDFFGFGKSDKPVDEEDYTFEFHRNFLLALIERLDLRNITLVVQDWGGFLGLTLPMADPSRFKRLIIMNACLMTDPVTQPAFSAFVTQPADGFTAWKYDLVTPSDLRLDQFMKRWAPTLTEAEASAYAAPFPDTSYQAGVRKFPKMVAQRDQACIDISTEAISFWQNDWNGQTFMAIGMKDKLLGPDVMYPMKALINGCPEPLEIADAGHFVQEFGEQVAREALKHFAETE | 60 ± 10 | 0.27 ± 0.01 |  |  |
| haloalkane dehalogenase (DhlA) (Xanthobacter autotrophicus; L262V) (protein) MINAIRTPDQRFSNLDQYPFSPNYLDDLPGYPGLRAHYLDEGNSDAEDVFLCLHGEPTWSYLYRKMIPVFAESGARVIAPDFFGFGKSDKPVDEEDYTFEFHRNFLLALIERLDLRNITLVVQDWGGFLGLTLPMADPSRFKRLIIMNACLMTDPVTQPAFSAFVTQPADGFTAWKYDLVTPSDLRLDQFMKRWAPTLTEAEASAYAAPFPDTSYQAGVRKFPKMVAQRDQACIDISTEAISFWQNDWNGQTFMAIGMKDKVLGPDVMYPMKALINGCPEPLEIADAGHFVQEFGEQVAREALKHFAETE | 250 ± 30 | 0.25 ± 0.01 |  |  |
| haloalkane dehalogenase (DhlA) (Xanthobacter autotrophicus; F128L/L262I) (protein) MINAIRTPDQRFSNLDQYPFSPNYLDDLPGYPGLRAHYLDEGNSDAEDVFLCLHGEPTWSYLYRKMIPVFAESGARVIAPDFFGFGKSDKPVDEEDYTFEFHRNFLLALIERLDLRNITLVVQDWGGLLGLTLPMADPSRFKRLIIMNACLMTDPVTQPAFSAFVTQPADGFTAWKYDLVTPSDLRLDQFMKRWAPTLTEAEASAYAAPFPDTSYQAGVRKFPKMVAQRDQACIDISTEAISFWQNDWNGQTFMAIGMKDKILGPDVMYPMKALINGCPEPLEIADAGHFVQEFGEQVAREALKHFAETE | 1080 ± 100 | 0.36 ± 0.02 |  |  |
| haloalkane dehalogenase (DhlA) (Xanthobacter autotrophicus; F128L/L262V) (protein) MINAIRTPDQRFSNLDQYPFSPNYLDDLPGYPGLRAHYLDEGNSDAEDVFLCLHGEPTWSYLYRKMIPVFAESGARVIAPDFFGFGKSDKPVDEEDYTFEFHRNFLLALIERLDLRNITLVVQDWGGLLGLTLPMADPSRFKRLIIMNACLMTDPVTQPAFSAFVTQPADGFTAWKYDLVTPSDLRLDQFMKRWAPTLTEAEASAYAAPFPDTSYQAGVRKFPKMVAQRDQACIDISTEAISFWQNDWNGQTFMAIGMKDKVLGPDVMYPMKALINGCPEPLEIADAGHFVQEFGEQVAREALKHFAETE |  |  | 1040 ± 60 | 0.18 ± 0.01 |
| haloalkane dehalogenase (DhlA) (Xanthobacter autotrophicus; F128L) (protein) MINAIRTPDQRFSNLDQYPFSPNYLDDLPGYPGLRAHYLDEGNSDAEDVFLCLHGEPTWSYLYRKMIPVFAESGARVIAPDFFGFGKSDKPVDEEDYTFEFHRNFLLALIERLDLRNITLVVQDWGGLLGLTLPMADPSRFKRLIIMNACLMTDPVTQPAFSAFVTQPADGFTAWKYDLVTPSDLRLDQFMKRWAPTLTEAEASAYAAPFPDTSYQAGVRKFPKMVAQRDQACIDISTEAISFWQNDWNGQTFMAIGMKDKLLGPDVMYPMKALINGCPEPLEIADAGHFVQEFGEQVAREALKHFAETE | 700 ± 30 | 0.05 ± 0.01 |  |  |
